Experimental data taken from PMC4737184, “The activity of CouR, a MarR family transcriptional regulator, is modulated through a novel molecular mechanism” (Nucleic Acids Research, 2015).
Positions count from the first letter of the chain named.

Key:
CouR [1] = target: T1, CouR (Rhodococcus jostii, UniProt Q0S6D0, R36A); test: ITC; format: binding
T1 construct: gene RHA1_ro05125; full-length

CouR [2] = target: T2, CouR (Rhodococcus jostii, UniProt Q0S6D0, R36A/R38A); test: ITC; format: binding
T2 construct: gene RHA1_ro05125; full-length

CouR [3] = target: T3, CouR (Rhodococcus jostii, UniProt Q0S6D0); test: ([…] Å) and ITC; EMSA in support; format: binding
T3 construct: gene RHA1_ro05125; full-length, homodimer; crystal model residues 4–146
T3 sequence (Q0S6D0 1-146): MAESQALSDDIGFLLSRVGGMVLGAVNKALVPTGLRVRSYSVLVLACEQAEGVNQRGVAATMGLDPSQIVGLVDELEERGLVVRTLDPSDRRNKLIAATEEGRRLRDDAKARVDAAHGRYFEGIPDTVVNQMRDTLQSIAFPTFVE

CouR [4] = target: T4, CouR (Rhodococcus jostii, UniProt Q0S6D0, R38A); test: ITC; format: binding
T4 construct: gene RHA1_ro05125; full-length

CouR [5] = target: T5, CouR (Rhodococcus jostii RHA1, UniProt Q0S6D0 1-146); test: competition; 1 uM unlabelled vs 1 nM DIG-couRp_couNp, 200 nM CouR; EMSA: 20 mM HEPES pH 7.6, 10 mM (NH4)2SO4, 30 mM KCl, 1 mM DTT, 1 mM EDTA, 0.2% Tween 20, 100 ug/ml poly[d(I-C)], 1 nM probe, 25 C, 20 min; details: protein: recombinant; tags: His-tag removed by Factor Xa; extra N-terminal His residue remains; chain copies: 2; blunt
T5 sequence: T3 sequence (Q0S6D0 1-146)

CouR R36A = target: T6, CouR R36A (Rhodococcus jostii RHA1, UniProt Q0S6D0 1-146, R36A); test: EMSA; 50 or 200 nM protein; EMSA: 20 mM HEPES pH 7.6, 10 mM (NH4)2SO4, 30 mM KCl, 1 mM DTT, 1 mM EDTA, 0.2% Tween 20, 100 ug/ml poly[d(I-C)], 1 nM probe, 25 C, 20 min; details: protein: recombinant; tags: His-tag removed by Factor Xa; extra N-terminal His residue remains; chain copies: 2; label: 3' DIG-11-ddUTP (probe); blunt
T6 sequence: T3 sequence (Q0S6D0 1-146) with R36A

CouR R38A = target: T7, CouR R38A (Rhodococcus jostii RHA1, UniProt Q0S6D0 1-146, R38A); test: as above; details: protein: recombinant; tags: His-tag removed by Factor Xa; extra N-terminal His residue remains; chain copies: 2; label: 3' DIG-11-ddUTP (probe); blunt
T7 sequence: T3 sequence (Q0S6D0 1-146) with R38A

CouR R36A/R38A = target: T8, CouR R36A/R38A (Rhodococcus jostii RHA1, UniProt Q0S6D0 1-146, R36A;R38A); test: as above; details: protein: recombinant; tags: His-tag removed by Factor Xa; extra N-terminal His residue remains; chain copies: 2; label: 3' DIG-11-ddUTP (probe); blunt
T8 sequence: T3 sequence (Q0S6D0 1-146) with R36A, R38A

CouR [6] = target: T5, CouR; test: EMSA; 25-200 nM CouR; EMSA: 20 mM HEPES pH 7.6, 10 mM (NH4)2SO4, 30 mM KCl, 1 mM DTT, 1 mM EDTA, 0.2% Tween 20, 100 ug/ml poly[d(I-C)], 1 nM probe, 25 C, 20 min; details: protein: recombinant; tags: His-tag removed by Factor Xa; extra N-terminal His residue remains; chain copies: 2; label: 3' DIG-11-ddUTP (probe); blunt

Molecule: CC(C)(COP(=O)(O)OP(=O)(O)OC[C@H]1O[C@@H](n2cnc3c(N)ncnc32)[C@H](O)[C@@H]1OP(=O)(O)O)[C@@H](O)C(=O)NCCC(=O)NCCSC(=O)/C=C/c1ccc(O)cc1 [p-coumaroyl–CoA]
- Kd (CouR [1]): 28 µM
- Kd (CouR [2]): 89 µM
- Kd (CouR [3]): 11 µM
- Kd (CouR [4]): 25 µM

B1: couHp (dsDNA)
DNA 1: TATCAATCATTGATAATGTCAATGATTGACT
DNA 2: AGTCAATCATTGACATTATCAATGATTGATA
- binding result (CouR [5]): binds

B2: couTp (dsDNA)
DNA 1: CATTAATCATTGAACTTGTCAATGGAAGAGA
DNA 2: TCTCTTCCATTGACAAGTTCAATGATTAATG
- binding result (CouR [5]): binds

B3: couRp_couNp (dsDNA)
DNA 1: CATTGATGATTGAGAATGTCAATGATTAAGG
DNA 2: CCTTAATCATTGACATTCTCAATCATCAATG
- binding result (CouR R36A): no binding
- binding result (CouR R38A): no binding
- binding result (CouR R36A/R38A): no binding
- binding result (CouR [6]): binds

B4: couRp_couNp_m (dsDNA)
DNA 1: CATTGATGTAACTGAATGAGTTAGATTAAGG
DNA 2: CCTTAATCTAACTCATTCAGTTACATCAATG
- binding result (CouR [6]): no binding
